According to the supplement of paper PMC7877785:
± gives the uncertainty stated by the source.

Experiment: self-splicing fitness, log relative to wild type (ln ratio); higher = more splicing; Tetrahymena group I intron in knt gene, E. coli kanamycin selection, DiMSum; sequences stand for … in CUCUCU…GGAGGGAAAAGUUAUCAGGCAUGCACCUGGUAGCUAGUCUUUAAACCAAUAGAUUGCAUCGGUUUAAAAGGCAAGACCGUCAAAUUGCGGGAAAGGGGUCAACAGCCGUUCAGUACCAAGUCUCAGGGGAAACUUUGAGAUGGCCUUGCAAAGGGUAUGGUAAUAAGCUGACGGACAUGGUCCUAACCACGCAGCCAAGUCCUAAGUCAACAGAUCUUCUGUUGAUAUGGAUGCAGUUCACAGACUAAAUGUCGGUCGGGGAAGAUGUAUUCUUCUCAUAAGAUAUAGUCGGACCUCUCCUUAAUGGGAGCUAGCGGAUGAAGUGAUGCAACACUGGAGCCGCUGGGAACUAAUUUGUAUGCGAAAGUAUAUUGAUUAGUUUUGGAGUACUCGUGGUCG
Outline: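 Colonies from six replicate transformations of E. coli BL21(DE3) were pooled and amplicon-sequenced on an Illumina HiSeq 2500. The library placed an intron with all eight P1ex-region nucleotides randomised inside the knt kanamycin-resistance gene on pET-22b(+), and cells grew overnight at 37°C or 30°C on LB agar with or without 25 μg/mL kanamycin (plus 100 μg/mL carbenicillin, 50 μM IPTG, 0.2% rhamnose). Fitness is the DiMSum error-weighted combination of wild-type-normalised replicate fold changes, kanamycin versus none.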

Row | Sequence | self-splicing fitness (ln) (30 °C) | self-splicing fitness (ln) (37 °C)
1 | UAGUAGCAAUAUUACGCCUU | -2.11 ± 0.12 | -0.556 ± 0.11
2 | UAGUAGCAAUAUUACGCGUU | -2.86 ± 0.17 | -2.44 ± 0.23
3 | UAGUAGCAAUAUUACGCUGG | -1.13 ± 0.099 | -1.34 ± 0.15
4 | UAGUAGCAAUAUUACGGAAU | – | -2.65 ± 0.44
5 | UAGUAGCAAUAUUACGGACG | -2.09 ± 0.12 | -0.623 ± 0.13
6 | UAGUAGCAAUAUUACGGAUG | -0.956 ± 0.084 | -0.222 ± 0.087
7 | UAGUAGCAAUAUUACGGGCC | -2.91 ± 0.23 | -1.62 ± 0.22
8 | UAGUAGCAAUAUUACGUAGG | -3.19 ± 0.47 | –
9 | UAGUAGCAAUAUUACGUCUG | 0.113 ± 0.19 | -0.884 ± 0.2
10 | UAGUAGCAAUAUUACGUGCG | -1.52 ± 0.12 | -0.311 ± 0.15
11 | UAGUAGCAAUAUUACGUGGU | -3.62 ± 0.18 | -3.33 ± 0.19
12 | UAGUAGCAAUAUUACGUUGA | -2.34 ± 0.13 | -1.54 ± 0.12
13 | UAGUAGCAAUAUUACGUUUG | -2.4 ± 0.18 | -0.923 ± 0.14
14 | UAUAAGCAAUAUUACGAGCU | -3.44 ± 0.34 | -1.47 ± 0.21
15 | UAUAAGCAAUAUUACGAGUA | -0.776 ± 0.085 | -0.245 ± 0.081
16 | UAUAAGCAAUAUUACGAUAC | – | -2.39 ± 0.33
17 | UAUAAGCAAUAUUACGAUCA | -0.251 ± 0.1 | 0.847 ± 0.11
18 | UAUAAGCAAUAUUACGCCAC | -3.21 ± 0.43 | -1.21 ± 0.38
19 | UAUAAGCAAUAUUACGCGUU | -2.67 ± 0.14 | -0.931 ± 0.12
20 | UAUAAGCAAUAUUACGCUCU | -0.357 ± 0.11 | 0.0533 ± 0.16
21 | UAUAAGCAAUAUUACGCUGC | -3.35 ± 0.32 | –
22 | UAUAAGCAAUAUUACGGCGU | -0.993 ± 0.093 | -0.232 ± 0.12
23 | UAUAAGCAAUAUUACGGCUA | -0.234 ± 0.092 | -0.126 ± 0.13
24 | UAUAAGCAAUAUUACGGCUU | -1.22 ± 0.12 | -0.669 ± 0.16
25 | UAUAAGCAAUAUUACGGGAC | -4.01 ± 0.37 | -2.76 ± 0.32

Row | Sequence | self-splicing fitness (ln) (30 °C) | self-splicing fitness (ln) (37 °C)
26 | UAUAAGCAAUAUUACGGUCA | -0.385 ± 0.12 | -0.125 ± 0.13
27 | UAUAAGCAAUAUUACGUGAG | -1.56 ± 0.1 | -1.12 ± 0.14
28 | UAUAAGCAAUAUUACGUGUG | -0.923 ± 0.073 | -0.446 ± 0.088
29 | UAUCAGCAAUAUUACGAAAC | – | -2.08 ± 0.32
30 | UAUCAGCAAUAUUACGAAGG | -1.58 ± 0.1 | -1.34 ± 0.13
31 | UAUCAGCAAUAUUACGACAG | -0.385 ± 0.078 | 0.0531 ± 0.1
32 | UAUCAGCAAUAUUACGACUC | -0.81 ± 0.11 | -0.283 ± 0.12
33 | UAUCAGCAAUAUUACGACUG | 0.153 ± 0.078 | 0.512 ± 0.13
34 | UAUCAGCAAUAUUACGAGAA | -1.22 ± 0.16 | -0.559 ± 0.13
35 | UAUCAGCAAUAUUACGAGCG | -0.616 ± 0.059 | 0.345 ± 0.088
36 | UAUCAGCAAUAUUACGAUGU | -0.816 ± 0.072 | -0.0178 ± 0.11
37 | UAUCAGCAAUAUUACGAUUG | -0.748 ± 0.087 | 0.588 ± 0.1
38 | UAUCAGCAAUAUUACGCAUG | -1.1 ± 0.082 | 0.181 ± 0.099
39 | UAUCAGCAAUAUUACGCCCG | -0.133 ± 0.098 | -0.202 ± 0.13
40 | UAUCAGCAAUAUUACGCCUU | -0.446 ± 0.24 | -0.723 ± 0.23
41 | UAUCAGCAAUAUUACGCUAU | -2.29 ± 0.11 | -1.74 ± 0.1
42 | UAUCAGCAAUAUUACGCUUA | -0.532 ± 0.13 | 0.504 ± 0.13
43 | UAUCAGCAAUAUUACGCUUC | -2.82 ± 0.23 | -2.09 ± 0.27
44 | UAUCAGCAAUAUUACGGAGA | -0.973 ± 0.085 | -0.0429 ± 0.1
45 | UAUCAGCAAUAUUACGGGUA | -1.2 ± 0.092 | -0.623 ± 0.1
46 | UAUCAGCAAUAUUACGGGUU | -1.83 ± 0.1 | -0.944 ± 0.11
47 | UAUCAGCAAUAUUACGGUGU | -1.35 ± 0.072 | -1.19 ± 0.098
48 | UAUCAGCAAUAUUACGUUGG | -2.48 ± 0.089 | -0.612 ± 0.1
49 | UAUGAGCAAUAUUACGAAAC | -2.34 ± 0.21 | –
50 | UAUGAGCAAUAUUACGACUA | -0.118 ± 0.11 | 0.0355 ± 0.12

Row | Sequence | self-splicing fitness (ln) (30 °C) | self-splicing fitness (ln) (37 °C)
51 | UAUGAGCAAUAUUACGACUU | -2.66 ± 0.24 | –
52 | UAUGAGCAAUAUUACGAGUC | – | -0.461 ± 0.46
53 | UAUGAGCAAUAUUACGCCUA | -1.59 ± 0.18 | -0.615 ± 0.21
54 | UAUGAGCAAUAUUACGCGUC | -2.05 ± 0.16 | -2.81 ± 0.37
55 | UAUGAGCAAUAUUACGCUCC | -1.47 ± 0.31 | –
56 | UAUGAGCAAUAUUACGCUUU | -4.14 ± 0.33 | -2.65 ± 0.36
57 | UAUGAGCAAUAUUACGGAGC | -1.38 ± 0.36 | –
58 | UAUGAGCAAUAUUACGGAGU | -4.87 ± 0.36 | -3.53 ± 0.37
59 | UAUGAGCAAUAUUACGGCCG | -1.33 ± 0.36 | -1.01 ± 0.35
60 | UAUGAGCAAUAUUACGGGCC | – | -3.14 ± 0.43
61 | UAUGAGCAAUAUUACGGGGG | -3.16 ± 0.26 | -2.31 ± 0.29
62 | UAUGAGCAAUAUUACGGGUU | -4.04 ± 0.3 | -2.41 ± 0.27
63 | UAUGAGCAAUAUUACGGUAA | -3.33 ± 0.35 | -2.78 ± 0.35
64 | UAUGAGCAAUAUUACGGUUG | -4.24 ± 0.43 | -2.38 ± 0.45
65 | UAUGAGCAAUAUUACGGUUU | -3.7 ± 0.2 | -2.43 ± 0.21
66 | UAUGAGCAAUAUUACGUCCC | -2.74 ± 0.49 | –
67 | UAUGAGCAAUAUUACGUGGC | -3.07 ± 0.2 | -2.52 ± 0.46
68 | UAUUAGCAAUAUUACGAAAA | -1.68 ± 0.26 | -1.2 ± 0.26
69 | UAUUAGCAAUAUUACGAAAU | -2.46 ± 0.35 | -1.53 ± 0.43
70 | UAUUAGCAAUAUUACGACCA | -0.42 ± 0.18 | -0.894 ± 0.19
71 | UAUUAGCAAUAUUACGAGGC | – | -0.205 ± 0.23
72 | UAUUAGCAAUAUUACGAGGU | -2.64 ± 0.24 | -2.27 ± 0.35
73 | UAUUAGCAAUAUUACGAUAU | -3.81 ± 0.26 | -2.11 ± 0.2
74 | UAUUAGCAAUAUUACGCCAC | – | -0.751 ± 0.48
75 | UAUUAGCAAUAUUACGCGAU | – | -2.15 ± 0.38

Row | Sequence | self-splicing fitness (ln) (30 °C) | self-splicing fitness (ln) (37 °C)
76 | UAUUAGCAAUAUUACGCUCA | 0.0548 ± 0.15 | 0.336 ± 0.17
77 | UAUUAGCAAUAUUACGGGGG | -4.15 ± 0.46 | -2.75 ± 0.34
78 | UAUUAGCAAUAUUACGGUCU | -2.66 ± 0.23 | -1.57 ± 0.32
79 | UAUUAGCAAUAUUACGGUGC | -3.77 ± 0.3 | -1.84 ± 0.23
80 | UAUUAGCAAUAUUACGGUGU | -3.01 ± 0.25 | -2.7 ± 0.3
81 | UAUUAGCAAUAUUACGUCAA | -1.86 ± 0.21 | -1.34 ± 0.24
82 | UAUUAGCAAUAUUACGUCUA | -0.265 ± 0.091 | 0.324 ± 0.12
83 | UAUUAGCAAUAUUACGUUGA | -3.32 ± 0.29 | -2.17 ± 0.23
84 | UAUUAGCAAUAUUACGUUUG | -2.12 ± 0.12 | -0.749 ± 0.13
85 | UCAAAGCAAUAUUACGAAAG | -3.84 ± 0.31 | -1.43 ± 0.18
86 | UCAAAGCAAUAUUACGACAA | -1.96 ± 0.19 | -1.22 ± 0.14
87 | UCAAAGCAAUAUUACGACAG | -2.66 ± 0.14 | -1.25 ± 0.14
88 | UCAAAGCAAUAUUACGACAU | -3.633 ± 0.023 | -2.37 ± 0.036
89 | UCAAAGCAAUAUUACGACGC | -3.24 ± 0.16 | -2.09 ± 0.14
90 | UCAAAGCAAUAUUACGACUC | -2.99 ± 0.38 | -0.37 ± 0.23
91 | UCAAAGCAAUAUUACGAGAG | -3.08 ± 0.2 | -2.21 ± 0.21
92 | UCAAAGCAAUAUUACGAGAU | -4.03 ± 0.33 | -1.91 ± 0.2
93 | UCAAAGCAAUAUUACGCAAA | -2.5 ± 0.23 | -2.19 ± 0.31
94 | UCAAAGCAAUAUUACGCAAU | -5.01 ± 0.34 | -2.79 ± 0.21
95 | UCAAAGCAAUAUUACGCCUC | – | -1.91 ± 0.37
96 | UCAAAGCAAUAUUACGCGCC | -2.36 ± 0.24 | -1.24 ± 0.28
97 | UCAAAGCAAUAUUACGCUCA | -0.864 ± 0.15 | -0.428 ± 0.19
98 | UCAAAGCAAUAUUACGCUGG | -3.55 ± 0.37 | -2.28 ± 0.33
99 | UCAAAGCAAUAUUACGGAUA | -3.12 ± 0.18 | -1.94 ± 0.14
100 | UCAAAGCAAUAUUACGGCGC | -1.8 ± 0.1 | -1.41 ± 0.13
